Usually Kd stands for the free concentration of one partner at which half of the binding sites on the other are occupied at equilibrium, for simple one-to-one binding. A lower Kd goes with a tighter complex.

Among the data in doi:10.1101/2022.08.19.504472 are Kd values, retold here.

Assay [1] has as its target FITC-labeled RLAAK peptide. Briefly: fluorescence polarisation. Background: Polarisation of emitted light reports the rotation of a fluorescent probe.
The target of assay [2] is FITC-labeled RDAAK peptide. As to the kind of experiment: fluorescence polarisation.

Turning to “His-MBP-OsPRT6-UBR 136H mutant (domain or fragment)”, in assay [1], the Kd worked out at 58.9 µM.

With “His-MBP-OsPRT6-UBR 136H+161V double mutant (domain or fragment)”, the dissociation constant (Kd) in assay [1] was 709 µM.

Regarding “His-MBP-OsPRT6-UBR 161V mutant (domain or fragment)”, the Kd in assay [1] turned out to be 41.4 µM.

As to “His-MBP-OsPRT6-UBR wild type (domain or fragment)”, the Kd in assay [2] is 137 µM; in assay [1] it was 25.8 µM.
